Reference: patent US20060239990A1, “Protein Arginine N-Methyltransferase 2 (PRMT-2)” (priority 2003, published 2006)

B1: PRMT2-N: generated by introducing a stop codon after amino acid 95 of PRMT-2, SEQ ID NO:4 (protein)
chain: MATSGDCPRSESQGEEPAECSEAGLLQEGVQPEEFVAIADYAATDETQLSFLRGEKILILRQTTADWWWGERAGCCGYIPANHVGKHVDEYDPED
modifications: A synthetic PRMT-2-N polypeptide
B2: PRMT2-A: alternatively spliced form containing the first 218 amino acids of PRMT-2, SEQ ID NO:3 (protein)
chain: MATSGDCPRSESQGEEPAECSEAGLLQEGVQPEEFVAIADYAATDETQLSFLRGEKILILRQTTADWWWGERAGCCGYIPANHVGKHVDEYDPEDTWQDEEYFGSYGTLKLHLEMLADQPRTTKYHSVILQNKESLTDKVILDVGCGTGIISLFCAHYARPRAVYAVEASEMAQHTGQLVLQNGFADIITVYQQKVEDVVLPEKVDVLVSEWMGTCLL
modifications: A synthetic PRMT-2-A mutant polypeptide
B3: mutant PRMT-2: mutated PRMT-2 lacking functional Ado-Met domain (the PRMT-2-4A mutant according to b407) (protein)
chain: MATSGDCPRSESQGEEPAECSEAGLLQEGVQPEEFVAIADYAATDETQLSFLRGEKILILRQTTADWWWGERAGCCGYIPANHVGKHVDEYDPEDTWQDEEYFGSYGTLKLHLEMLADQPRTTKYHSVILQNKESLTDKVAAAAGCGTGIISLFCAHYARPRAVYAVEASEMAQHTGQLVLQNGFADIITVYQQKVEDVVLPEKVDVLVSEWMGTCLLFEFMIESILYARDAWLKEDGVIWPTMAALHLVPCSADKDYRSKVLFWDNAYEFNLSALKSLAVKEFFSKPKYNHILKPEDCLSEPCTILQLDMRTVQISDLETLRGELRFDIRKAGTLHGFTAWFSVHFQSLQEGQPPQVLSTGPFHPTTHWKQTLFMMDDPVPVHTGDVVTGSVVLQRNPVWRRHMSVALSWAVTSRQDPTSQKVGEKVFPIWR

Assays:
p50/p65 complex = assay: NF-κB DNA binding assay (EMSA); type: biochemical, human; details: 293 cells cotransfected with p50 and p65 expression vectors
Protocol: DNA binding assay. Electrophoretic mobility shift assays (EMSAs) were conducted on 10 μg of nuclear extract protein from 293 cells transiently transfected with pRSV p50/p65 expression constructs and pVR1012 PRMT-2-A/PRMT-2-N expression constructs. A modified Dignam procedure (Dignam et al. Nucleic Acids Res. 11, 1475-1489 (1983)) was used to prepare nuclear extracts from 293 cells. Perkins, N. D. et al. Science 275, 523-527 (1997). NF-KB DNA binding was assayed using a double-stranded 32P-labeled κB probe (Geneka Biotechnology). DNA binding assays were performed as described previously. Perkins et al. Science 275, 523-527 (1997). Supershifting was done using NF-κB p65 (C-20) and NF-κB p50 (H-119) (Santa Cruz). GST-PRMT-2-A fusion proteins were expressed in BL21 (DE3) cells and extracts were prepared as described previously. Smith, D. B. & Johnson, K. S. Gene 67, 31-40 (1988).

IκB-α = assay: Co-immunoprecipitation with endogenous IκB-α in 293 cells; type: binding, human; details: HA-tagged constructs in 293 cells
Chain of IκB-α (P25963 whole entry, the tested form may be a part): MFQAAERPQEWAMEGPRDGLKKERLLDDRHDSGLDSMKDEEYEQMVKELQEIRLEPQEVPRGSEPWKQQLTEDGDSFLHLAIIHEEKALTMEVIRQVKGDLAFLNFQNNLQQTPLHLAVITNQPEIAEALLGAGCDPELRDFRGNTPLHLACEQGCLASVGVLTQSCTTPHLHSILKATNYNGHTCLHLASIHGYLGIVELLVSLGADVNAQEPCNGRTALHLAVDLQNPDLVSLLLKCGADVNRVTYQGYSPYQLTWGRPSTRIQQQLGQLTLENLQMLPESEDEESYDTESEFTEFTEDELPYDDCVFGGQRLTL
Description: A polyclonal antibody to recombinant PRMT2 was used to examine the association between endogenous PRMT2 and IκB-α in vivo. […] The domain of IκB-α required for association with PRMT2 was mapped using in vivo immunoprecipitation assays where HA-tagged PRMT2 was coexpressed with truncation mutants of His-tagged IκB-α (FIG. 5B) in 293 cells. The ankyrin domain was both necessary and sufficient for this association (FIG. 5D, lanes 1 and 2). The domain of PRMT2 that interacted with endogenous IκB-α was mapped by immunoprecipitation following expression HA-tagged PRMT2 truncation mutants (FIG. 5C). […] When the ratios of PRMT2 or PRMT2-A binding to IκB-α were compared, both interacted with IκB-α with similar affinity.

NF-κB = NF-κB luciferase reporter assay in 293T cells; type: cell-based, human; details: for NF-κB activity: 1 μg expression construct, 100 ng 5 κB luciferase reporter; for IKK2- and p65-induced NF-κB activity: κB luciferase reporter, 48 hrs
Protocol: Cell culture, transfection, and reporter gene assays. The E1A-transformed, human kidney cell line, 293, and NIH-3T3 cells were maintained in Dulbecco's Modified Eagle Medium (DMEM) supplemented with 10% fetal calf serum and penicillin-streptomycin at 37° C. in 5% carbon dioxide in tissue culture grade Petri dishes. PRMT-2−/− mouse embryo fibroblasts (MEFs) and wild type MEFs were prepared from day 13.5 embryos and maintained in DMEM supplemented with 10% fetal calf serum. MEFs at passage 4 were used in this experiment. Lipofectamine Plus™ reagent (Boehringer Mannheim) was used to transfect both 293 and NIH-3T3 cells according to directions from the manufacturer. […] TNF-α stimulation of cells was done using recombinant TNF-α (200 U/ml) for 12 hours. […] CAT assays were performed essentially as described in Leung, K. & Nabel, G. J. Nature 333, 776-778 (1988). To analyze the κB-reporter activity in MEFs, cells were transfected with the reporter (2×kB-Luc) and PRL-TK vector (Promega) using FuGENE6 transfection reagent (Roche). Luciferase activity was analyzed by Dual-Luciferase Reporter Assay System (Promega).
To map the domains responsible for inhibition of HIV transcription, truncation and point mutations were made in PRMT2 (FIG. 1D) and co-transfected with an NF-κB reporter in 293T cells. PRMT2-A represents an alternatively spliced form of PRMT2 found in the expressed sequence tag (EST) database. This isoform contains the first 218 amino acids of PRMT2 and differs from full length PRMT2 by the absence of the less conserved COOH-terminal domain. PRMT2-N was generated by introducing a stop codon after amino acid 95 before the putative Ado-Met domain of PRMT2. To analyze the role of the Ado-Met domain further, another mutant, PRMT2-4A, was prepared in which 141ILDV144 (SEQ ID NO:5) in this region were altered to four consecutive alanines to compare the effects of point mutations in this highly conserved region.
The mechanism and site of action of PRMT2 in the NF-κB signaling pathway was further defined by co-transfection of PRMT2 and its mutants with different regulators in this pathway with an NF-κB reporter in 293T cells (FIG. 2D).

[1] = tested on: HIV-1, HIV-2, HTLV-1, or HTLV-2 reporter plasmids; assay: CAT reporter assay with viral reporter plasmids in 293 cells; type: cell-based, human
Protocol: Cell culture, transfection, and reporter gene assays. The E1A-transformed, human kidney cell line, 293, and NIH-3T3 cells were maintained in Dulbecco's Modified Eagle Medium (DMEM) supplemented with 10% fetal calf serum and penicillin-streptomycin at 37° C. in 5% carbon dioxide in tissue culture grade Petri dishes. PRMT-2−/− mouse embryo fibroblasts (MEFs) and wild type MEFs were prepared from day 13.5 embryos and maintained in DMEM supplemented with 10% fetal calf serum. MEFs at passage 4 were used in this experiment. Lipofectamine Plus™ reagent (Boehringer Mannheim) was used to transfect both 293 and NIH-3T3 cells according to directions from the manufacturer. […] TNF-α stimulation of cells was done using recombinant TNF-α (200 U/ml) for 12 hours. Transfected cells were harvested at 36 hours, and CAT activity was assayed on 10 to 100 μg of protein from whole cell extracts. CAT assays were performed essentially as described in Leung, K. & Nabel, G. J. Nature 333, 776-778 (1988). To analyze the κB-reporter activity in MEFs, cells were transfected with the reporter (2×kB-Luc) and PRL-TK vector (Promega) using FuGENE6 transfection reagent (Roche). Luciferase activity was analyzed by Dual-Luciferase Reporter Assay System (Promega). […]

STAT3 = STAT3 arginine methylation in transfected HEK293 cells; type: cell-based; details: 24 hr after transfection, α-metR immunoblot
Protocol: Vascular smooth muscle cells (VSMC) were prepared from the thoracic aorta of 12-week-old-male wild-type and PRMT-2^−/− mice by the explant method. Mouse embryo fibroblasts (MEFs) were prepared from 13.5-day wild-type and PRMT-2^−/− embryos. VSMCs and MEFs were cultured in Dulbecco's modified Eagle's medium (DMEM) containing 10% fetal calf serum (FCS) at 37° C. in a humidified atmosphere of 95% air-5% CO2. The integrity of PRMT-2 expression in the established VSMCs and MEFs lines was confirmed by Western and immunofluorescence analysis (data not shown). Quiescent VSMC (3-5th passages) that had been serum-starved for 48 hr were used in the following experiments. HEK293 cells were also grown in DMEM plus 10% FCS and were transiently transfected with FuGENE6 transfection reagent (Roche Applied Science, Indianapolis, Ind.) according to the manufacture's protocol. For each transfection, 2 μg of expression construct for mouse PRMT-2 and 8 μg for mouse STAT3 were used. After 24-48 hr of transfection, cells were used for the following experiments.
Immunoprecipitation of STAT3 was performed as follows. […]

Row | Molecule | NF-κB DNA binding in nuclear extracts of transfected cells (p50/p65 complex) | association with endogenous IκB-α (IκB-α) | NF-κB activity (NF-κB) | IKK2- and p65-induced NF-κB activity (NF-κB) | expression from HIV-2 or HTLV reporter plasmids [1] | HIV-1 CAT expression ([1]; HIV-1 reporter plasmid) | Stat3 methylation (STAT3)
1 | B1 | did not affect NF-κB DNA binding | did not associate | did not | unable to block this effect |  |  | 
2 | B2 |  | interacted | inhibited NF-κB activity | inhibited both IKK2- and p65-induced NF-κB activity | No significant reduction | substantially inhibited | 
3 | B3 |  |  |  |  |  |  | failed to evoke STAT3 methylation
